This is an account of results in the RNAGym collection of RNA variant scans (doi:10.7554/elife.90254).

The chains are these.
B1: LINE1-full (parent)
chain: UACGUAGGUGGUUUUCCCCUGAUAGUGCUAAGGGGGCCUGGAAGUUUGGACUGGGCAGAGCUCAACACAGCGUGGCAAAGUGGCUGUGGCUAGACUGCCUCUCUGGAUUCCUCGUCACUCAGCAGGGCAUCUCUGAGAGAAAUGCC

The variants in this series derive from B1. In words: self-cleavage, relative activity (ratio to wild type); higher = more cleavage; in vitro, sequencing; the parent is a self-cleaving ribozyme.
A57U G88A: the self-cleavage was 0.04.
In the case of A57C A77U, the self-cleavage was determined as 0.08.
Regarding A57C A92U, the self-cleavage came to 0.
With A59G G125C, the self-cleavage turned out to be 0.2.
With A57U G125A, the self-cleavage amounted to 0.04.
As for C56U A142U, the self-cleavage was 0.23.
As to A57G G126A, the self-cleavage came to 1.19.
For the variant A57U G144A, the self-cleavage came out at 0.16.
With G58A U104A, the self-cleavage stood at 0.03.
As for A57U U134A, the self-cleavage was 0.1.
With G55U U132C, the self-cleavage came to 0.16.
Turning to A57U A141G, the self-cleavage is 0.11.
Regarding A59G G135A, the self-cleavage amounted to 0.08.
As for A57G A124U, the self-cleavage stood at 0.76.
Turning to A57G A124G, the self-cleavage was determined as 0.41.
The figure for A57G A136U is 0.95; for A57U U102A it is 0.08.
C56U A124G: the self-cleavage amounted to 0.08.
In the case of A59G U85C, the self-cleavage stood at 0.09.
In the case of A59G U85G, the self-cleavage amounted to 0.14.
The figure for A59G U85A is 0.04.
As to G60A A94G, the self-cleavage came to 0.
G60A A94C: the self-cleavage was found to be 0.01.
With G58U A142G, the self-cleavage is 0.03.
On to G60A A77G, for which the self-cleavage was found to be 0.03.
The figure for G60A A138U is 0.05.
In the case of C56U U100C, the self-cleavage is 0.44.
Regarding A59G C95A, the self-cleavage turned out to be 0.01.
Consider A57U C120A, for which the self-cleavage is 0.05.
For A57U A140G, the self-cleavage was determined as 0.11.
In the case of A57U A140U, the self-cleavage worked out at 0.2.
In the case of A57U G58U, the self-cleavage worked out at 0.04.
In the case of C56U A138U, the self-cleavage was 0.1.
On to C56U A138G, for which the self-cleavage turned out to be 0.31.
In the case of A59G G88A, the self-cleavage came out at 0.06.
The result for A59G C84A reads 0.04; that for G60A A124G, 0.05.
Take A59U A67G: the self-cleavage is 0.39.
For the variant A57G A117G, the self-cleavage is 1.41.
In the case of A57U A59G, the self-cleavage was 0.05.
On to G55U U85A, for which the self-cleavage was determined as 0.03.
For the variant A59G G106A, the self-cleavage was determined as 0.06.
As to A59U U91C, the self-cleavage was 0.34.
Take A59U U104C: the self-cleavage amounted to 1.02.
The result for A57C G86A reads 0.04; that for G58U C71U, 0.04.
The result for A59U U102C reads 0.94; that for A57G U130A, 1.27; that for A57G U130C, 1.3.
As to A57U A65G, the self-cleavage was 0.07.
In the case of A57U U100C, the self-cleavage was 0.19.
The result for A59G C123U reads 0.05; that for A57G U85G, 0.23.
With A57G U85A, the self-cleavage turned out to be 0.13.
In the case of A57G U85C, the self-cleavage came out at 0.16.
As for A57C A121U, the self-cleavage worked out at 0.03.
A59G U119C: the self-cleavage was determined as 0.13.
Turning to A59G U119A, the self-cleavage was 0.09.
On to A59G U73A, for which the self-cleavage was determined as 0.08.
Take A59G U73G: the self-cleavage was 0.12.
With C56U A129G, the self-cleavage was found to be 0.22.
The result for A57U A69G reads 0.08; that for A57U A69U, 0; that for C56U U134G, 0.28.
A57G C63U: the self-cleavage is 0.17.
Take A59G G126U: the self-cleavage was 0.11.
With A59U G89A, the self-cleavage was 0.04.
For A57G C98U, the self-cleavage came out at 0.19.
On to A57U G126A, for which the self-cleavage was determined as 0.07.
A59G A77C: the self-cleavage worked out at 0.33.
Regarding A59G A77U, the self-cleavage was 0.05.
For G58U U143C, the self-cleavage was found to be 0.07.
The figure for A57U A129G is 0.13; for A57G A69U it is 0.07.
The figure for A57G C99A is 0.2; for A57G C99U it is 0.13; for A57G U96G it is 0.
With A57U U108C, the self-cleavage was found to be 0.17.
As for G58C A124U, the self-cleavage turned out to be 0.03.
The figure for A57U C90U is 0.02; for A59U U134G it is 1.26; for G58U A69G it is 0.07.
On to A59C A142G, for which the self-cleavage turned out to be 0.57.
In the case of A57U G106U, the self-cleavage amounted to 0.09.
On to A57U U85C, for which the self-cleavage is 0.06.
As for A57U U85A, the self-cleavage was determined as 0.05.
As to A59G C133G, the self-cleavage is 0.12.
For the variant A57U C66G, the self-cleavage turned out to be 0.05.
The result for A57U U132A reads 0.13.
Take A59G U87G: the self-cleavage is 0.
For A59G U87A, the self-cleavage was found to be 0.06.
In the case of A59G U87C, the self-cleavage turned out to be 0.11.
In the case of A59G G97A, the self-cleavage turned out to be 0.03.
As to C56A U143A, the self-cleavage came out at 0.09.
On to A57U G127A, for which the self-cleavage amounted to 0.1.
Consider G58U A64U, for which the self-cleavage is 0.05.
A59G A107G: the self-cleavage was determined as 0.09.
The figure for A57G A67U is 0.06; for C56U U85A it is 0.04; for A57U U143C it is 0.14.
Take C56U A136U: the self-cleavage was found to be 0.13.
With A57G A94U, the self-cleavage turned out to be 0.19.
Consider A59G U132C, for which the self-cleavage was 0.11.
As for A57G A65G, the self-cleavage stood at 0.1.
A57G A65U: the self-cleavage turned out to be 0.15.
For the variant A57G G60C, the self-cleavage was found to be 0.11.
Regarding G58U U62C, the self-cleavage turned out to be 0.
The figure for G58U U62A is 0.02; for G58U U132C it is 0.01; for A57U C84A it is 0.21.
As to A59G U108A, the self-cleavage came to 0.11.
With A59G U108C, the self-cleavage is 0.11.
In the case of A57G A78G, the self-cleavage came to 0.65.
As to A59C U102A, the self-cleavage amounted to 1.1.
Turning to A59C U102C, the self-cleavage came to 2.07.
A57U U119C: the self-cleavage was 0.06.
In the case of A57C U132G, the self-cleavage came out at 0.
Regarding A57C U132A, the self-cleavage came out at 0.
Turning to G55U U134C, the self-cleavage stood at 0.29.
As to A57G G58A, the self-cleavage stood at 0.03.
The figure for A59G U102A is 0.
As for A59G U102C, the self-cleavage amounted to 0.1.
As to A57U A78U, the self-cleavage was determined as 0.03.
Consider C56U C111U, for which the self-cleavage was 0.19.
Regarding A57G U134A, the self-cleavage was found to be 0.62.
For the variant A57G U134G, the self-cleavage is 0.78.
As to A57G U134C, the self-cleavage amounted to 0.93.
G58A A94G: the self-cleavage came out at 0.
As for G58A U73C, the self-cleavage is 0.04.
On to A57U A124U, for which the self-cleavage was found to be 0.09.
On to A57U A121U, for which the self-cleavage is 0.12.
With A57U A121G, the self-cleavage amounted to 0.15.
As to A57G A121G, the self-cleavage turned out to be 1.07.
The result for A59G U104G reads 0.08.
As to A59G U104C, the self-cleavage was 0.15.
Turning to A59G U96G, the self-cleavage came to 0.
The figure for A59G U96C is 0.04; for C56U U112A it is 0.1.
Regarding C56U U115C, the self-cleavage turned out to be 0.19.
A59U G60A: the self-cleavage stood at 0.05.
A59G A64C: the self-cleavage amounted to 0.
Turning to A59G A64U, the self-cleavage is 0.08.
The result for A59G A64G reads 0.06.
On to A57G, for which the self-cleavage is 0.88.
With A57U, the self-cleavage was 0.1.
Turning to A57C, the self-cleavage is 0.08.
In the case of A57G G75A, the self-cleavage is 0.73.
In the case of A57G G75C, the self-cleavage was 0.35.
As to A57U C63A, the self-cleavage was determined as 0.04.
Turning to A59G A124G, the self-cleavage came to 0.13.
For A59G U143G, the self-cleavage amounted to 0.03.
As to A59G U143C, the self-cleavage is 0.1.
The result for A57G A129G reads 0.74; that for A57U U104A, 0.06; that for A59G U130C, 0.17.
Take A59G U130A: the self-cleavage was 0.1.
As for A57U U62A, the self-cleavage stood at 0.03.
Turning to A57U U62C, the self-cleavage stood at 0.05.
Regarding A57U U62G, the self-cleavage came to 0.
In the case of A59U U115C, the self-cleavage was 1.34.
Take A59C U134A: the self-cleavage was determined as 1.46.
Regarding G58U A78G, the self-cleavage is 0.03.
In the case of A59U U108C, the self-cleavage came to 1.09.
The result for A59U U108G reads 0.84.
Take G58A A64G: the self-cleavage was found to be 0.03.
In the case of A59U U130C, the self-cleavage was 0.63.
On to G58U U81C, for which the self-cleavage worked out at 0.05.
